Experimental data: paper PMC5972919, “A strategy for L-isoleucine dioxygenase screening and 4-hydroxyisoleucine production by resting cells” (Bioengineered, 2017)

Substrate: CC[C@H](C)[C@H](N)C(=O)O
Experiment: HPLC of 4-hydroxyisoleucine after precolumn derivatization; Michaelis-Menten fit
Type: biochemical, Bacillus thuringiensis
Settings: apparent, L-Ile 0.02 to 5 mM, 10 mM alpha-ketoglutarate, 5 mM FeSO4, 10 mM ascorbic acid, 100 mM Tris-HCl pH 7.0, 30 °C
From the text: HPLC of 4-hydroxyisoleucine after precolumn derivatization; Michaelis-Menten fit on IDO (L-isoleucine dioxygenase)

B1: IDO (L-isoleucine dioxygenase) (Bacillus thuringiensis) (protein)
chain: MKMSGFSIEEKVHEFESKGFLEISNEIFLQEEENHRLLTQAQLDYYNLEDDAYGECRAGSYSRYIKYVDSPDYILDNSNDYFQSKEYNYDDGGKVRQFHSINDSFLYNPLIQNIVRFDTEFAFKTNIIDTSKDLIIGLHQVRYKATKERPSFSSPIWLHKDDEPVVFLHLMNLSNTAIGGDNLIANSPREINQFISLKEPLETLVFGQKVFHAVTPLGTECSTEAFRDILLVTFSYKETK
notes: motif His159-X-Asp161-X50-His212
B1 showed a Km of 200 µM, a Vmax of 2.18 µmol/min/mg and a kcat of 0.0727 s⁻¹. It also gave a kcat/Km of 363 M⁻¹ s⁻¹.
